Assays:
[1] = mouse, in vivo; for Alpha half-life / Beta half-life / k elim half-life / k perm half-life / k vas return half-life: iv
Description: To assess the relationship between PN dimensions and transcapillary passage, the classic two compartment pharmacokinetic model ( Figure 4A ) [17] was applied to PN(783)10.0 ( Figure 4B ) and PN(783)4.3 ( Figures 4C ).
Groups of 5 nude mice (female; 25–30 g; 6–8 weeks old; nu/nu) were injected (tail vein, IV) with 10 nmole of PN(783)4.3 or PN(783)10.0. 50 µl of blood was collected from tail tip at the indicated times. The blood was processed as above, and diluted (25 µl plasma, 700 µl of PBS). Fluorescence was measured with Cary Eclipse Fluorescence Spectrophotometer, excitation at 765 nm and emission from 790 to 880 nm. The fluorescence intensity at 806 nm was plotted over time, and the data was fit to a biexponential, two phase decay curve. The fast and slow distribution half-life was given by the two phase decay fit with Graphpad Prism software.
From the two phase decay fit, a biexponential equation for blood concentration as a function of time, [drawing 8] , was obtained. By the relation of macro constants and micro constants: [drawing 9] , [drawing 10] , [drawing 11] [drawing 12] , micro constants k's can be obtained, and the half-life was calculated by [drawing 13] , as described in [17]. The curve for interstitium concentration vs. time was fit with MATLAB based on the curve of blood concentration vs. time.
PN pharmacokinetics: Groups of 5 nude mice (female; 25-30g; 6-8 weeks old; nu/nu) were injected (tail vein, IV) with 10 nmole of PN(783)4.3 or PN(783)10.0. 50 μl of blood was collected from tail tip at the indicated times. The blood was processed as above, and diluted (25 μl plasma, 700 μl of PBS). Fluorescence was measured with Cary Eclipse Fluorescence Spectrophotometer, excitation at 765 nm and emission from 790 to 880 nm. The fluorescence intensity at 806 nm was plotted over time, and the data was fit with two-phase decay curve. The fast and slow distribution half-life was given by the two-phase decay fit with Graphpad Prism software.
Two compartment model: From the two-phase decay fit, a biexponential equation for blood concentration as a function of time, [picture] , was obtained. By the relation of macro constants and micro constants, [picture] , [picture] , [picture] , micro constants k's can be obtained, and the half-life was calculated by [picture] , as described in ^5. The curve for interstitium concentration vs. time was fit with MATLAB based on the curve of blood concentration vs. time.
Serum fluorescence data from Figure 3B and Figure 3C was analyzed using the two-compartment model as described ^5. Data were first fit to biexponential equation, yielding values of Alpha, Beta (apparent decay constants) and values of A and B as shown in equations 1 and 2 below.

[2] = Elimination by whole animal surface fluorescence imaging; assay type: in vivo; conditions: mice, after injection, n = 6
Description: Surface fluorescence images for representative animals are shown and total surface fluorescence is quantified in bar graphs to the right of the image. […] The pharmacokinetics and biodistributions of these PN’s is further analyzed below.
Figure 3 Role PEG in determining elimination by surface fluorescence imaging. A) Animals were injected with unPEGylated peptide and imaged at the times indicated. Bar graph gives whole animal surface fluorescence determined as means and standard deviations, n = 6.
(§1) A Kodak FX multispectral imaging system was used (Carestream Molecular Imaging, Rochester, NY). Excitation at multiple wavelengths (620, 650, 690, 710, 720, 730, 750 and 760 nm) with the emission at 830 nm was setup for IR-783 spectrum; Excitation at multiple wavelengths (420, 440, 460, 480, 510, 520, 530, and 540 nm) with the emission at 600 nm was setup for Cy3 spectrum; Excitation at multiple wavelengths (450, 470, 510, 520, 530, 540, 550, 570, and 590 nm) with the emission at 700 nm was setup for mCherry; with manufacturer’s software to separate (unmix) the IR-783 spectrum, Cy3 spectrum, or mCherry spectrum from skin autofluorescence and chlorophyll fluorescence from food. X-ray images were taken after fluorescence images. […]
as §1, with “Whole animal surface fluorescence imaging: All animal experiments in this work were approved by the Institutional Review Committee of the Massachusetts General Hospital. […]” for “A Kodak FX multispectral imaging system was used (Carestream Molecular Imaging, Rochester, NY).”

[3] = Circulating form of PN's: FPLC of sera of injected mice; assay type: in vivo; conditions: 20 nmoles IV tail vein, nude mice, FPLC at 783 nm
Description: To see if the variable PN size could be translated into tunable pharmacokinetics, it was essential to first establish that PN’s circulated at PEG-determined, pre-injection dimensions. Mice were injected with PN’s and FPLC chromatograms of serum samples, taken at various times post injection ( Figures 2D, 2E and 2F ), compared with pre-injection PN samples. By using PN’s absorbing at 783 nm, chromatograms from the sera of injected mice reflect this PN, since there are no compounds in serum that absorb at this wavelength. […] Similarly, peaks for PN(783)6.1 ( Figure 2E ) and PN(783)4.3 ( Figure 2F ) where identical for pre-injection samples and for nanoprobes in the sera of injected mice. Thus, molecular weight of the PEG chosen determines PN dimensions in vitro and those dimensions are maintained after injection.
(§2) At the indicated time, 50 µl of blood was collected with microhematocrit capillary tube (Fisher Scientific) from the tail, and transferred to Eppendorf microcentrifuge tube with anticoagulant (EDTA) coating (Fisher Scientific). Tubes were centrifuged (5000 rpm for 5 min), and the supernatant was injected to the FPLC, a ÄKTA Purifier 10 with SuperdexTM 200 10/300GL column.
as §2, with “μl” for “µl”

[4] = system: mCherry expressing HT-29 tumor; assay: Intravital two photon microscopy of mCherry expressing HT-29 tumor in dorsal skinfold chamber; assay type: in vivo, nude mice; conditions: 10 nmoles IV
Text: A feature of PN design is that the fluorochrome can be selected to optimize optical properties for different applications. To image the vascular pharmacokinetic phase with two photon microscopy, PN(497)10.0 was used because its fluorescein is readily excited in the two photon mode. […] To further examine the vascular and interstitial phases, a dorsal skinfold chamber was used for the intravital, two photon microscopy of a mCherry expressing HT-29 tumor ( Figure 5B ).
Dorsal skinfold chamber (DSFC) tumors were grown in female nude mice (nu/nu; 25–30 g; 6–8 weeks old) with modifications from previously published techniques, [35]. 10^6 mCherry-HT-29 tumor cells in matrixgel (BD) were subcutaneously injected in the back of mice ∼1.5 cm left of the dorsal midline approximately halfway from the neck to the tail base. […] On days 2, 3, and 4 days after tumor DSFC implantation, when tumors were typically 3 mm in diameter, image stacks of tumor tissue were recorded under general anesthesia with Ketamine and Xylazine. […]
Multiphoton excitation was obtained through DeepSee and MaiTai Ti:sapphire lasers (Newport/Spectra-Physics) tuned to 920 and 1000 nm to excite all fluorescent probes used. […] Emitted fluorescence was detected through 460/50, 525/50, 595/50, 660/40 band-pass filters and non-descanned detectors to generate four-color images. […]

HT-29 tumor = assay: SPECT/CT and surface fluorescence imaging of the EPR effect of the HT-29 tumor; assay type: in vivo, nude mice; conditions: 48 h post-injection, mice bearing HT-29 tumors
Description: A) SPECT/CT images of two mice bearing two HT-29 tumors as a function of time after injection. […] B) Surface fluorescence imaging of two additional mice bearing the same tumor.
Female nude mice (25–30 g; 6–8 weeks old; nu/nu) were anesthetized with 2% isoflurane/O2. HT-29 or mCherry-HT-29 cells were detached, pelleted and 200 µl of cell suspension containing 10^6 cells in Matrigel (BD Bioscience) was injected subcutaneously into right and left shoulders. Tumors were allowed to grow 5–7 days before experiments.
The imaging was performed by Triumph II multimodality imaging system (Gamma Medica Ideas, LLC) comprising XSPECT with four CZT (Cadmium Zink Telluride) detectors and X-O CT with CMOS detector. SPECT data of the ^111In-labeled compound was acquired for 60 min using 5-pinhole collimators and processed with 3D-OSEM algorithm using 4 subsets and 5 iterations. 3-dimensional CT data was processed with modified Feldkamp software. […] Animals were under isoflurane anesthesia (1.5%) with O2 flow (1.5 l/min) and kept warm during the imaging with a heated animal bed.

| Substance | k perm expressed as a half-life [1] [h] | Alpha half-life [1] [h] | Beta half-life [1] [h] | k elim half-life [1] [h] | k perm half-life [1] [h] | k vas return half-life [1] [h] | Elimination seen by whole animal surface fluorescence [2] | Circulating size: FPLC peaks of serum samples after injection versus pre-injection sample [3] | Localisation by intravital microscopy, interstitial phase ([4]; 20 h post-injection) | Localisation by intravital microscopy, vascular phase ([4]; ten minutes post-injection) | Distribution by SPECT and surface fluorescence (HT-29 tumor) |
| --- | --- | --- | --- | --- | --- | --- | --- | --- | --- | --- | --- |
| (DOTA)Lys(PEG 5 kDa)-Cys(IR-783) [PN(783)4.3, PEG-like Nanoprobe: 5 kDa PEG, IR-783 fluorochrome, DOTA peptide] | 0.395 | 0.13 | 1.64 | 1.01 | 0.40 | 0.20 | bladder accumulation (arrow) at only 20 minutes post injection | identical |  |  |  |
| (DOTA)Lys(PEG 30 kDa)-Cys(Fl) [PN(497)10.0, PEG-like Nanoprobe: 30 kDa PEG, fluorescein, DOTA peptide] |  |  |  |  |  |  |  |  | seen in the interstitium at the tumor periphery | confined to the vasculature |  |
| (DOTA)Lys(PEG 30 kDa)-Cys(IR-783) [PN(783)10.0, PEG-like Nanoprobe: 30 kDa PEG, IR-783 fluorochrome, DOTA peptide] |  | 0.51 | 7.0 | 4.2 | 1.02 | 1.23 | excellent elimination at 48 h | circulates at its pre-injection size |  |  | seen only in the tumor |
